From article PMC9146797, “[^99mTc]Tc-Labeled Plectin-Targeting Peptide as a Novel SPECT Probe for Tumor Imaging” (Pharmaceutics, 2022)
Where a SMILES comes first, the peptide text is derived from it. Where no end group is shown, it is not given here.

Assays:
[1] = In vitro stability in FBS (RCP by ITLC); type: in vitro ADME, bovine; details: 37 °C, 0-6 h
Procedure: The [^99mTc]Tc-labeled PTP was characterized using an Agilent 1260 HPLC system (Agilent Technologies, Santa Clara, CA, USA) equipped with a UV-vis detector (λ = 220 nm) and a radioactive flow detector (BioScan, Poway, CA, USA). A SunFire C18 column (5 µm, 4.6 × 250 mm, Waters, Japan) was used at a 1 mL/min flow rate with the following gradient method: 0.1% trifluoroacetic acid in H2O and CH3CN (0–20 min, 15–45% CH3CN). The RCP of [^99mTc]Tc-HYNIC-PTP was determined by radio-HPLC and could also be rapidly analyzed by ITLC in a system consisting of silica gel 60 F254 TLC plates (Merck, Germany) and 50% acetonitrile as mobile phase. To assess the stability in vitro, the formed [^99mTc]Tc-HYNIC-PTP (500 μL, 1 mCi) was mixed with 500 μL of PBS (0.1 M, pH = 7.4) and 500 µL of cysteine solution (100-fold molar excess over the PTP) at room temperature, and 500 µL of FBS at 37 °C. The RCPs were tested by ITLC at different time intervals (0–6 h).

[2] = tested on: tumor-bearing mice (U87, C6, A549, 4T1, and BxPC-3); assay: SPECT imaging in vivo; details: i.v. 200 µL of 10 mCi/mL, 0.5-4 h
Procedure: The feasibility of [^99mTc]Tc-HYNIC-PTP as a SPECT probe for tumor imaging was examined using established subcutaneous tumor models. Briefly, [^99mTc]Tc-HYNIC-PTP solution (200 µL, [^99mTc]Tc = 10 mCi/mL, corresponding to 2 µg of HYNIC-PTP) was intravenously injected into tumor-bearing mice. SPECT images were acquired 0.5, 1, 2, and 4 h after injection using a SPECT imaging system equipped with a Xeleris 2.0 workstation and low-energy general-purpose collimators (Infinia, Denver, CO, USA). After SPECT imaging, the tumors and muscle tissues were excised to confirm plectin expression levels by immunohistochemistry. Briefly, excised specimens were fixed in formalin and embedded in paraffin. The sections (5 μm) were subjected to heat treatment in a citrate solution for antigen retrieval and blocking with 3% bovine serum albumin for 30 min. Then the sections were incubated with anti-plectin primary antibody (1:200) overnight at 4 °C. After incubation with secondary antibody (K5007, DAKO, Carpinteria, CA, USA) at room temperature for 50 min, the slides were treated with 1:100 DAB (K5007, DAKO, USA) and counterstained with hematoxylin. At least three sections of each specimen were chosen, and 5–10 high-power visual fields were randomly selected to calculate the positive area of staining. The average areas were then used to plot histograms.

healthy ICR mice = assay: Pharmacokinetics in blood; type: in vivo; details: for radioactivity in blood: i.v. 20 µCi
Procedure: The pharmacokinetic profile of [^99mTc]Tc-HYNIC-PTP was investigated in healthy ICR mice. The mice were randomly divided into nine groups (n = 3), and each mouse was intravenously injected with [^99mTc]Tc-HYNIC-PTP at a dose of 20 µCi in a 200 µL solution. One hundred microliters of blood from each mouse was immediately collected and weighed at designated times (1, 2, 5, 15, 30, 60, 120, 240, and 360 min), and radioactivity was measured using a γ-counter (CAPINTEC, USA) to calculate the percent uptake of the injected dose per gram (%ID/g). In addition, the pharmacokinetic data were analyzed by DAS 2.0 (Shanghai, China) using a two-compartment model to calculate the half-life of [^99mTc]Tc-HYNIC-PTP in the blood.

CCK-8 cytotoxicity assay = type: cell-based; details: C6 and BEAS-2B cells, PTP 0-200 µg/mL, CCK-8, absorbance 450 nm, BxPC-3, C6, BEAS-2B cells (Figure S1), read-out: cell viability
Procedure: CCK-8 assays were used to assess the potential cytotoxic effects of PTP on normal and tumor cell lines. Briefly, taking BxPC-3 cells as an example, the cells were seeded into 96-well plates at a density of 1 × 10^4 per well with RPMI-1640 medium and 10% FBS. After 24 h, the medium was replaced with 100 µL of fresh medium containing different concentrations of PTP (0–200 µg/mL) for another 24 h. Next, 10 µL of CCK-8 solution was added, and the cells were subsequently cultured for 1.5 h. Absorbance at 450 nm was measured using a Varioskan Flash multimode microplate reader (Thermo Fisher Scientific, Waltham, MA, USA). The cytocompatibility of PTP was also assessed in C6 and BEAS-2B cells using the same method.

BALB/c nude mice = assay: Preliminary toxicity study in vivo
Procedure: To assess the preliminary safety in vivo, five BALB/c nude mice were treated with PTP at a single dose (1 mg, 100 µL), and another five mice treated with saline were used as the control group. The body weight, physical activity, and death of each mouse were recorded during the following seven days. The major organs of the mice, including the heart, liver, spleen, lung, and kidneys, were harvested for histological examination.

[3] = blood, two-compartment model, DAS 2.0

Row | Compound | change of RCP in FBS [1] | route of clearance [2] | radioactivity in blood (healthy ICR mice; 1 min post-injection, n = 3, γ-counter) [%ID/g] | radioactivity in blood (healthy ICR mice; 30 min post-injection, n = 3) [%ID/g] | radioactivity in blood (healthy ICR mice; 360 min post-injection, n = 3) | clear-phase half-life (t1/2 beta) (healthy ICR mice; [3]) [min] | distribution-phase half-life (t1/2 alpha) (healthy ICR mice; [3]) [min] | viability at 24 h (CCK-8 cytotoxicity assay) [%] | death of mice (BALB/c nude mice; single dose 1 mg in 100 µL, five mice, seven days, vs saline) | body weight and physical activity (BALB/c nude mice; single dose 1 mg in 100 µL, within seven days, vs saline group) | H&E staining of main organs (heart, liver, lung, spleen, kidneys) (BALB/c nude mice; single dose 1 mg, vs saline group (Figure S2))
1 | CC(C)C[C@H](NC(=O)[C@@H](NC(=O)[C@H](CCCCN)NC(=O)c1ccc(NN)nc1)[C@@H](C)O)C(=O)N[C@@H](CC(C)C)C(=O)N1CCC[C@H]1C(=O)N[C@H](C(=O)N1CCC[C@H]1C(=O)O)[C@@H](C)O [[^99mTc]Tc-HYNIC-PTP, metal not drawn] (HELM PEPTIDE1{[NNc1ccc(C(=O)[*:2])cn1].K.T.L.L.P.T.P}$$$$V2.0) | no evident changes in RCPs | predominantly cleared through the urinary system | 14.52 | 1.35 | Less than 0.01 %ID/g | 9.17 | 0.88 |  |  |  | 
2 | KTLLPTP [PTP] |  |  |  |  |  |  |  | > 90 | None of the mice died | no significant difference | no significant difference in tissue damage, necrotic areas, or abnormalities
